Experimental findings from patent US20190381086A1 (Scripps Research, published 2019) are described below.

Assay [1] has as its target T1, ubiquitin (UniProt P0CG48 1-76).
T1 construct: Bought protein
In words: His-tag pull-down.

The target of assay [2] is T2, GST-APPBP1 (UniProt Q13564 1-534, limits assumed).
T2 construct: Fractions of a Superdex 200 run of GST-APPBP1/UBA3 that held only GST-APPBP1; also called APPBP1 subunit alone; E1 regulatory subunit APPBP1; not shown: GST tag
T2 sequence (looked up): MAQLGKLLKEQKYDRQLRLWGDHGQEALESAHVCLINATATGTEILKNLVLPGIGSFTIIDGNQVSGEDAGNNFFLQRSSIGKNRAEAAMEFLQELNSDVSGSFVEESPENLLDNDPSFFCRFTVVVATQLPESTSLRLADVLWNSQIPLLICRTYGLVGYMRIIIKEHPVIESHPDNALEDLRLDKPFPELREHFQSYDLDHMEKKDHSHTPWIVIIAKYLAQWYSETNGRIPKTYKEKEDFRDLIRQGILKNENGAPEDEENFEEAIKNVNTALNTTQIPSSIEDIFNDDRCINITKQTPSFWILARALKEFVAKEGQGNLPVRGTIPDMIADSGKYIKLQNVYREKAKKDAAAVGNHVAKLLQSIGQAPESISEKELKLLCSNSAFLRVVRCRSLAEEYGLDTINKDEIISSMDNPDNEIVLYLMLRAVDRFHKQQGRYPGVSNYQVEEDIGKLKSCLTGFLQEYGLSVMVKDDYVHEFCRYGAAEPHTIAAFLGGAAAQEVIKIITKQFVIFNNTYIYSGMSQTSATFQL
The assay can be described thus: biolayer interferometry, APPBP1 immobilized, ABD GlyRS 0.58-4.6 µM. In general terms: Biolayer interferometry detects binding as a change in optical thickness at a sensor tip.

Assay [3] deals with T3, E1 for neddylation, APPBP1/UBA3 heterodimer (UniProt Q13564 1-534; Q8TBC4 22-463).
T3 construct: GST-tagged or untagged preparations are mentioned; also called GST-APPBP1/UBA3; NAE; not shown: GST tag on APPBP1 (GST-APPBP1/UBA3)
T3 sequence (looked up) 1: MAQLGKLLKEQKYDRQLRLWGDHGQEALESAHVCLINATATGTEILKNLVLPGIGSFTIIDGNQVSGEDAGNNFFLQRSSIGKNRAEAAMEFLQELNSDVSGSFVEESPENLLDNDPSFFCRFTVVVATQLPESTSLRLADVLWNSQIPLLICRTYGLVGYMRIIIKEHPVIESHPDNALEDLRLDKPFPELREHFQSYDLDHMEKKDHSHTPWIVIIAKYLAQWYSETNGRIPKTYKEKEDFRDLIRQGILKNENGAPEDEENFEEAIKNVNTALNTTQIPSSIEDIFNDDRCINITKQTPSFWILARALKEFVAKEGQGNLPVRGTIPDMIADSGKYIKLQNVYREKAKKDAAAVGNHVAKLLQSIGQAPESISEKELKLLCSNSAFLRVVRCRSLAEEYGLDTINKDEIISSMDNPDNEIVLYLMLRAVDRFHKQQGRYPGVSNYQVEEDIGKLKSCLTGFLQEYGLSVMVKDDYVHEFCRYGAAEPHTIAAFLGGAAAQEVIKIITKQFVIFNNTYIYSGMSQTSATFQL
T3 sequence (looked up) 2: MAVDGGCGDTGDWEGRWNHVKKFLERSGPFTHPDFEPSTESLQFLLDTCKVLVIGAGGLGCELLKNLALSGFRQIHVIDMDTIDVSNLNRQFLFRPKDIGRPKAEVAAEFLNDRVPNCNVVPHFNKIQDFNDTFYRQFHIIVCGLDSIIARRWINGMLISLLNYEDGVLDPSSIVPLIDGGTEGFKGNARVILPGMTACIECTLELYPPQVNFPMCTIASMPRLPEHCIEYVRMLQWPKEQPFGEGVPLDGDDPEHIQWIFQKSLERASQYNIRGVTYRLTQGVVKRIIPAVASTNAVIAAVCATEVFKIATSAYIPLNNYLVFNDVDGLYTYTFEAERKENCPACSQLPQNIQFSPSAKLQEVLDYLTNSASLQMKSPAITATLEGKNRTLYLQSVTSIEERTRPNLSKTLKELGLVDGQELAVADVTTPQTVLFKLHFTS
The assay can be described thus: biolayer interferometry, E1 (APPBP1/UBA3) immobilized, analyte 62.5-500 nM.

For assay [4], the target named is T4, GlyRS in HEK293 cells (endogenous) (human, UniProt P41250 55-739, limits assumed).
T4 sequence: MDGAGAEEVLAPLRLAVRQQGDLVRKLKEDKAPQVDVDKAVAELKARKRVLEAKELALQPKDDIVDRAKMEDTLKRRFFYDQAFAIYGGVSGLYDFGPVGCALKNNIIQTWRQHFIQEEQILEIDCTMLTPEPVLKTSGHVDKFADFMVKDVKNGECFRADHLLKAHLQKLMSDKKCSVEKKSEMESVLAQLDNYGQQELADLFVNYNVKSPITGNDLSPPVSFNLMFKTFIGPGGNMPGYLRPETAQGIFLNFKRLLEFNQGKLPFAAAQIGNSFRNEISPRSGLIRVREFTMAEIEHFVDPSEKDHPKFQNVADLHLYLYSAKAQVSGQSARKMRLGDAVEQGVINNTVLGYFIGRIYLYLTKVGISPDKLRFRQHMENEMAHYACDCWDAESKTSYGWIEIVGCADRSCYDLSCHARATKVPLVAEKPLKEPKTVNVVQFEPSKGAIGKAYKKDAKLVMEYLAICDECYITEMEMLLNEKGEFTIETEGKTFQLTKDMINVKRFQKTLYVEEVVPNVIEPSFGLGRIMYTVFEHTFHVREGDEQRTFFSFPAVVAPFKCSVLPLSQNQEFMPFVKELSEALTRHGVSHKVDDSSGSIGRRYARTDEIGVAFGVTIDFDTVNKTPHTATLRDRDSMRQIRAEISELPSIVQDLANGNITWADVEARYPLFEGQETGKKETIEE
The assay can be described thus: co-immunoprecipitation, HEK293 cells.

B1: His-tagged human TrpRS (tryptophanyl-tRNA synthetase) (enzyme, UniProt P23381 1-471, looked up)
chain: MPNSEPASLLELFNSIATQGELVRSLKAGNASKDEIDSAVKMLVSLKMSYKAAAGEDYKADCPPGNPAPTSNHGPDATEAEEDFVDPWTVQTSSAKGIDYDKLIVRFGSSKIDKELINRIERATGQRPHHFLRRGIFFSHRDMNQVLDAYENKKPFYLYTGRGPSSEAMHVGHLIPFIFTKWLQDVFNVPLVIQMTDDEKYLWKDLTLDQAYSYAVENAKDIIACGFDINKTFIFSDLDYMGMSSGFYKNVVKIQKHVTFNQVKGIFGFTDSDCIGKISFPAIQAAPSFSNSFPQIFRDRTDIQCLIPCAIDQDPYFRMTRDVAPRIGYPKPALLHSTFFPALQGAQTKMSASDPNSSIFLTDTAKQIKTKVNKHAFSGGRDTIEEHRQFGGNCDVDVSFMYLTFFLEDDDKLEQIRKDYTSGAMLTGELKKALIEVLQPLIAEHQARRKEVTDEIVKEFMTPRKLSFDFQ
notes: not shown: His tag
For B1, the binding result in assay [1] is “no binding”.

B2: ABD (V541-E685) of GlyRS (enzyme)
chain: VREGDEQRTFFSFPAVVAPFKCSVLPLSQNQEFMPFVKELSEALTRHGVSHKVDDSSGSIGRRYARTDEIGVAFGVTIDFDTVNKTPHTATLRDRDSMRQIRAEISELPSIVQDLANGNITWADVEARYPLFEGQETGKKETIEE
notes: Cloned, expressed and purified in a similar way as the full-length GlyRS; also called ABD GlyRS; ABD domain alone
A word on the Kd: it is the free concentration of one partner at which half of the binding sites on the other are occupied at equilibrium, for simple one-to-one binding. Low readings indicate higher affinity, high ones lower affinity. As for B2, the results for the Kd in assay [2] and in assay [3] were 144 nM and 187 nM, respectively.

B3: ΔWHEP GlyRS (enzyme)
chain: IVDRAKMEDTLKRRFFYDQAFAIYGGVSGLYDFGPVGCALKNNIIQTWRQHFIQEEQILEIDCTMLTPEPVLKTSGHVDKFADFMVKDVKNGECFRADHLLKAHLQKLMSDKKCSVEKKSEMESVLAQLDNYGQQELADLFVNYNVKSPITGNDLSPPVSFNLMFKTFIGPGGNMPGYLRPETAQGIFLNFKRLLEFNQGKLPFAAAQIGNSFRNEISPRSGLIRVREFTMAEIEHFVDPSEKDHPKFQNVADLHLYLYSAKAQVSGQSARKMRLGDAVEQGVINNTVLGYFIGRIYLYLTKVGISPDKLRFRQHMENEMAHYACDCWDAESKTSYGWIEIVGCADRSCYDLSCHARATKVPLVAEKPLKEPKTVNVVQFEPSKGAIGKAYKKDAKLVMEYLAICDECYITEMEMLLNEKGEFTIETEGKTFQLTKDMINVKRFQKTLYVEEVVPNVIEPSFGLGRIMYTVFEHTFHVREGDEQRTFFSFPAVVAPFKCSVLPLSQNQEFMPFVKELSEALTRHGVSHKVDDSSGSIGRRYARTDEIGVAFGVTIDFDTVNKTPHTATLRDRDSMRQIRAEISELPSIVQDLANGNITWADVEARYPLFEGQETGKKETIEE
notes: also called AWHEP GlyRS; core synthetase; not shown: His tag
B3 came in with a Kd in assay [3] of 177 nM.

B4: APPBP1 in HEK293 cells (endogenous) (enzyme, UniProt Q13564 2-534, looked up)
chain: AQLGKLLKEQKYDRQLRLWGDHGQEALESAHVCLINATATGTEILKNLVLPGIGSFTIIDGNQVSGEDAGNNFFLQRSSIGKNRAEAAMEFLQELNSDVSGSFVEESPENLLDNDPSFFCRFTVVVATQLPESTSLRLADVLWNSQIPLLICRTYGLVGYMRIIIKEHPVIESHPDNALEDLRLDKPFPELREHFQSYDLDHMEKKDHSHTPWIVIIAKYLAQWYSETNGRIPKTYKEKEDFRDLIRQGILKNENGAPEDEENFEEAIKNVNTALNTTQIPSSIEDIFNDDRCINITKQTPSFWILARALKEFVAKEGQGNLPVRGTIPDMIADSGKYIKLQNVYREKAKKDAAAVGNHVAKLLQSIGQAPESISEKELKLLCSNSAFLRVVRCRSLAEEYGLDTINKDEIISSMDNPDNEIVLYLMLRAVDRFHKQQGRYPGVSNYQVEEDIGKLKSCLTGFLQEYGLSVMVKDDYVHEFCRYGAAEPHTIAAFLGGAAAQEVIKIITKQFVIFNNTYIYSGMSQTSATFQL
With B4, in assay [4], the binding result is recorded as “binds”.
